Molecular target: bovine trypsin (bovine, UniProt P00760 24-246)
Assay: cell-based or functional assay

bovine trypsin, sequence (P00760 24-246): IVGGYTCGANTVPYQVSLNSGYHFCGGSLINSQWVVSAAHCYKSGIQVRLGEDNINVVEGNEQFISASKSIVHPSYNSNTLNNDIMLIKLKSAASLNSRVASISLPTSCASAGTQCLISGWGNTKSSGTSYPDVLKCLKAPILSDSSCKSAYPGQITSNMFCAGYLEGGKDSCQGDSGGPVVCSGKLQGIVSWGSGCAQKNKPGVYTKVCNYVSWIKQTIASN

- Trypsin inhibition activity: 13700 TIU/g
B1: Native chicken Ovomucoid (other)
chain: AEVDCSRFPNATDKEGKDVLVCNKDLRPICGTDGVTYTNDCLLCAYSIEFGTNISKEHDGECKETVPMNCSSYANTTSEDGKVMVLCNRAFNPVCGTDGVTYDNECLLCAHKVEQGASVDKRHDGGCRKELAAVSVDCSEYPKPDCTAEDRPLCGSDNKTYGNKCNFCNAVVESNGTLTLSHFGKC
modifications: complex branched N-linked glycosylation (includes mannose)
